In a protein production outcome set (Wang et al. 2014):

Test: label from the status in PepcDB records

Sequence	protein production
MAETNTATSAVNAQITDAVTQVNTKVVGETPAMAMGNLLMSTSHALSNTAHNATAAQQQGQITMQAATVQGVNSLMSVSSAVIGRSSEEVIEKG	failed
MDTLEPTAVDTHVSAEQILRDVYKKGQKARGSTNIDILDLEELREYQRRKRTEYEGYLKRNRLDMGQWIRYAQFEIEQHDMRRARSIFERALLVDSSFIPLWIRYIDAELKVKCINHARNLMNRAISTLPRVDKLWYKYLIVEESLNNVEIVRSLYTKWCSLEPGVNAWNSFVDFEIRQKNWNGVREIYSKYVMAHPQMQTWLKWVRFENRHGNTEFTRSVYSLAIDTVANLQNLQIWSDMEVAKLVNSFAHWEAAQQEYERSSALYQIAIEKWPSNQLLKAGLLDFEKQFGDINSIEETISYKRKMEYETILSNNAYDYDTWWLYLDLISESFPKQIMQTFEKAIVDSRPKELSKNVQWKRYIYLWMRYICYVELELENSLLEEELFQRLIDDIIPHKHFTFSKIWLMYAKFLIRHDDVPKARKILGKAIGLCPKAKTFKGYIELEVKLKEFDRVRKIYEKFIEFQPSDLQIWSQYGELEENLGDWDRVRGIYTIALDENSDFLTKEAKIVLLQKYITFETESQEFEKARKLYRRYLELNQYSPQSWIEFAMYQTSTPTEQQLLDLAKLQSENVDEDIEFEITDENKLEARKVFEEAIVFFKEKDDKQGRLSILEALKDYEETYGTELDQETVKKRFPKVIKKVRLQNGVEEEFVDYIFPDDIDDDKPKPSKFLELAKKWKQEQAL	failed
SAVSARLRTTAEDTSIAKSTQDPIGDTEISVANAKGSSDSNIKNSPGGNSVGQESELEHVPEEDDSGDKEADHEDSETATAKKRKAQPLKNPKKSLKRGRVPAPLNLSDSNTNTHGGNIKDGNLASSNSAHFPPVANQNVKSAPAQVTQHSKFQPRVQYLGKASSRQSIQVNNSSNSYGKPHMPSAGIMSAMNPYMPMNRYIMSPYYNPYGIPPPHMLNKPIMTPYVSYPYPMGPRTSIPYAMQGGNARPYEENEYSASNYRNKRVNDSYDSPLSGTASTGKTRRSEEGSRNSSVGSSANAGPTQQRADLRPADMIPAEEYHFERDALLSANTKARSASTSTSTSTSTNRDRSSWHEAEPNKDEEEGTDLAIEDGAVPTPTFTTFQRTSQPQQQSPSLLQGEIRLSSHIFAFEFPLSSSNVDKKMFMSICNKVWNESKELTKKSSSHHRTGK	failed
MKYNYTVLLSAFTMSVLYSVIYIHSFIIAALITMAFYFLFPYLIFALPLQIMMNKKPKRFSPLYLLYYLAAAFIANAIIFGMLQPSGQSLFQNTAFYLFAVLTALIYWIWDSVLLQKKEA	failed
MDVFATGAGQVDPAKVLSPGLVYDATTEDYLKFIQGTGMDLGMEGLGTTQARDMNVPSFALGNLAGKIEVTRTLTALTPGTYRASVNVPGVNVKVTPSVLTFGAPGEKKTFKVQFENNNAALGKFAMGSLNWQGANKTVTSPIAVRPLEHHHHHH	failed
KISNIFEDVEFCVMSGTDSQPKPDLENRIAEFGGYIVQNPGPDTYCVIAGSENIRVKNIILSNKHDVVKPAWLLECFKTKSFVPWQPRFMIHMCPSTKEHFAREYD	not failed
KNVNRVLSAEALKPGMLLTGTVSSLEDHGYLVDIGVDGTRAFLPLLKAQEYIRQKNKGAKLKVGQYLNCIVEKVKGNGGVVSLSVGHSEVSTAIATEQQSWNLNNL	not failed
MQSATDVAEYCKYDGFDGLKRAISLSDEEILNELDIAHLRGRGGAAYPLGKKWRHLYHAKGTTKYIVCNADEGEPGTFKDKVLLSEDPLSVIEGMIIAGYLFSAKAGYIYMRGEYRRIQKTFQEALDNARQAGFLGENILGIEGFNYDITIISGAGAYICGENSALLNSIEGKTGRPRVKPPHLADVGLYLQPTLVNNVESFASVPVILREGGQAFLEMGTADGGGTKLICLSGHIKNRGLYEVNLGTPLEEIIYGEQYGGGSATGRALKFIHFGGQSGPIGAVATLRDCLYSYEDLWAHDLSVGSGAIVVMDDSVNVVDYLVHVAAFFAHESCGKCTPCRLGTTRILELLSKFNRNEATASDLPRLEKMLTHVTRLSACGLGQSVANPMKSALALFPEEFETTAETEIYATSKGGWLEHHHHHH	not failed
